Data: article PMC5389604

Molecular target: T1, RarA (MgsA) (Escherichia coli, UniProt P0AAZ4 1-447)
T1 sequence: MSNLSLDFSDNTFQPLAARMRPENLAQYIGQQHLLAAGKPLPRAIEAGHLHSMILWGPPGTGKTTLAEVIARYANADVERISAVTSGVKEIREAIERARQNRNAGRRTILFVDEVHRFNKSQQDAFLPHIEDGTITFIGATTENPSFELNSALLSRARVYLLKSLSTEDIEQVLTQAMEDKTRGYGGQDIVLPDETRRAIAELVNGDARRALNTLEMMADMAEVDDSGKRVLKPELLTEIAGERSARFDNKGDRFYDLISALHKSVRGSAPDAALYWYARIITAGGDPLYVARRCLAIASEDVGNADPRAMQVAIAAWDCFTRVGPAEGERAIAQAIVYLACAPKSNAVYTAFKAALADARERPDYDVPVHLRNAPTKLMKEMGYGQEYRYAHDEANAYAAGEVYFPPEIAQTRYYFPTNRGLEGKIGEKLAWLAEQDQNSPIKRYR
Assay: fluorescence polarization

With ACACAGAAGGAGACGG (ssDNA) [oANP031_F 16 nt ssDNA] the Kd was 890 ± 28 nM.
